Laboratory results taken from patent US20130064837A1 (University of California, published 2013).

Experiments:
human integrin β8 = molecular target: T1, human integrin β8 (human, UniProt P26012 43-769); test: antibody binding, cell surface staining, flow cytometry
T1 construct: whole, on cells; also called ITGB8; H ITGB8
Source text: (§1) Chimeric integrin β8 constructs, which swapped mouse sequences into human ITGB8 were used to localize the 37E1B5 binding epitope. The epitope was localized by antibody binding, cell surface staining, and detection by flow cytometry. The 37E1B5 epitope is encompassed within amino acids 74-180 of human integrin β8. 37E1B5 binds to human, but not to mouse β8. Therefore, at least one of the 9 non-conservative amino acid differences or 7 minor amino acid differences (indicated by + in the middle line of the sequence) are included in the binding epitope. These domains reflect portions of what are known in the field as the Psi, hybrid and the alpha1 helix of the Beta-I domain of the integrin β8 subunit, and are found on the surface of the molecule.

human integrin αvβ8 = human integrin αvβ8 (human, UniProt P06756 31-1048; P26012 43-769); test: cell staining and flow cytometry on primary human articular chondrocytes
Chain of human integrin αvβ8 (P06756 31-1048, chain 1 of 2): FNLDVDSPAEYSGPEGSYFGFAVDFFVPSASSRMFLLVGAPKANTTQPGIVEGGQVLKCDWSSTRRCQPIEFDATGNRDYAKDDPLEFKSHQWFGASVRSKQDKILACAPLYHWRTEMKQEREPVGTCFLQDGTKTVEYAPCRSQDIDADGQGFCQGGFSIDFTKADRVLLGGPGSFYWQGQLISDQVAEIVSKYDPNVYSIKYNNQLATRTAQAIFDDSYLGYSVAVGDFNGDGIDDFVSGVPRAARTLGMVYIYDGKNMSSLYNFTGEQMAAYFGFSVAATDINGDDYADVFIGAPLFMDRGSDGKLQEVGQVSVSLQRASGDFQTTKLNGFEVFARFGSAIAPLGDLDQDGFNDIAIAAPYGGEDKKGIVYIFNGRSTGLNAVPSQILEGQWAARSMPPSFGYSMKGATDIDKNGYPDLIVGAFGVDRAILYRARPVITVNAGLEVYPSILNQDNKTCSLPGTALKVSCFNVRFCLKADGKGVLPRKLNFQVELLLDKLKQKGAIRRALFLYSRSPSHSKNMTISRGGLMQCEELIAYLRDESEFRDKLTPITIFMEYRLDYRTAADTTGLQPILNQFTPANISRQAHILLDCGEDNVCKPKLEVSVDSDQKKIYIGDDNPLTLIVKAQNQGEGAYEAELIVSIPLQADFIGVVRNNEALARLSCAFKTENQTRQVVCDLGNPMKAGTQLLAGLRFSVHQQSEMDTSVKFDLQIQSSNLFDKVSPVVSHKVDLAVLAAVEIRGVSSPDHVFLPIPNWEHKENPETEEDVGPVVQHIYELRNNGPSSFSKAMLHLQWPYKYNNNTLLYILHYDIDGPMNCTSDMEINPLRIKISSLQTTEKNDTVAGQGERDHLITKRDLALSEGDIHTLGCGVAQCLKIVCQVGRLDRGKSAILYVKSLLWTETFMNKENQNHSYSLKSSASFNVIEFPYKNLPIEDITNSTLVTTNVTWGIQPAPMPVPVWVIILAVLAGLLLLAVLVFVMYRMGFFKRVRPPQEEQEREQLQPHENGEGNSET
Chain of human integrin αvβ8 (P26012 43-769, chain 2 of 2): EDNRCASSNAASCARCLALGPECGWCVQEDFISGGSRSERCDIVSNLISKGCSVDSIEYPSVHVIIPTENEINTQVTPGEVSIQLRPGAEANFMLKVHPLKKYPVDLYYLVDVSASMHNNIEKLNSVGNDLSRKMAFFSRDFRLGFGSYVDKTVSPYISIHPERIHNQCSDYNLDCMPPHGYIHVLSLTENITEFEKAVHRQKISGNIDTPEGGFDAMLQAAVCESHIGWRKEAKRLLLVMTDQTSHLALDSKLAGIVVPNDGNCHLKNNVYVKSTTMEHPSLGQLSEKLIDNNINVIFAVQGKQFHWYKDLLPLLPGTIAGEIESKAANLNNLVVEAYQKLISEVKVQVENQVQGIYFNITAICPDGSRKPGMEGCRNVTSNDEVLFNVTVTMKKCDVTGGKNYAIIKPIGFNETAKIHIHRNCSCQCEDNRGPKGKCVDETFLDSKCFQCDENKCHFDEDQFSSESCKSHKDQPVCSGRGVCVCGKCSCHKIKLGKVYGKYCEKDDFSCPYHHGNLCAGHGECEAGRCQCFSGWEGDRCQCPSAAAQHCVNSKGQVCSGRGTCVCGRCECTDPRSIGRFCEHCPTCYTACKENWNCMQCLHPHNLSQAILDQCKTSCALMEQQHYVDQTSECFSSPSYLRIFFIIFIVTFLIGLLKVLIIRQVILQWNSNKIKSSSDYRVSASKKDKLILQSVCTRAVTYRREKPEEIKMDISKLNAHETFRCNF
Description: Adult articular cartilage was harvested from the joint space of knee from a patient undergoing elective repair of a knee for chronic osteoarthritis. Primary chondrocytes were grown to 70% confluence and the integrin receptor expression determined by cell staining and flow cytometry. The antibodies used were anti-β8 (37E1B5), and anti-β6 (E7P6). […] Primary chondrocytes were co-cultured with TMLC TGF-β reporter cells (Annes et al. (2004) J. Cell Biol. 165:723) in a TGF-β bioassay in the presence or absence of anti-β8 (37E1B5) or neutralizing anti-β6. Anti-β8 produced a robust blockade of TGF-β activation while anti-β6 produced no such effect.

mouse integrin β8 = molecular target: T2, mouse integrin β8 (mouse, UniProt Q0VBD0 22-767, limits assumed); test: antibody binding, cell surface staining, flow cytometry (mouse/human chimeric β8 constructs)
T2 construct: also called itgb8; M itgb8
T2 sequence (looked up): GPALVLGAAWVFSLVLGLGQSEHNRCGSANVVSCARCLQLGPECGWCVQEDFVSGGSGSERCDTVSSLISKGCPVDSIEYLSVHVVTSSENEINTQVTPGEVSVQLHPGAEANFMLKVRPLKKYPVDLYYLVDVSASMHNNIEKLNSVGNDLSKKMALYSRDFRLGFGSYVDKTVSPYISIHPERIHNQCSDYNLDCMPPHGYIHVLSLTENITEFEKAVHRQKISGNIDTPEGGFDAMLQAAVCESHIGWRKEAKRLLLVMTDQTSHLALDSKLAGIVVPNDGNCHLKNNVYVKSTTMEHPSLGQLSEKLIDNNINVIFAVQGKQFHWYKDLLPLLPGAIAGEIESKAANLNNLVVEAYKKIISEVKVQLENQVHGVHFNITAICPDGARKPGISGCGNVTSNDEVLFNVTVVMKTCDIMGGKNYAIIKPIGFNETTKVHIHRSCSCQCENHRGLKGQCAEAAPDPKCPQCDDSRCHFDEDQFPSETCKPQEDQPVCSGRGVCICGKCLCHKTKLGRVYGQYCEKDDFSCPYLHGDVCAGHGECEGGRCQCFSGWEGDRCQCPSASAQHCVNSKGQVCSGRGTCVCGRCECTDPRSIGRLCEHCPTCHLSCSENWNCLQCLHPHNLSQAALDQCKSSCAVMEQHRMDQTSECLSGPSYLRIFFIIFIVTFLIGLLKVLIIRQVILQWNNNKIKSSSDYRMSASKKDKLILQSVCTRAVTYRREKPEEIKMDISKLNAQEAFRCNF
Source text: as §1

T1 sequence (P26012 43-769): as the sequence (P26012 43-769, chain 2 of 2) above

B1: 37E1B5 (antibody, V domains shown)
VH: EVQLVESGGGLVQPGGSLNLSCAVSGFVFSRYWMSWVRQAPGKGLEWIGEINPDSSTINYTSSLKDKFIISRDNAKNTLYLQMNKVRSEDTALYYCACLITTEDYWGQGTSVTVSS
VL: QIVLTQSPSSMYASLGERVTIPCKASQDINSYLSWFQQKPGKSPKTLIYYANRLVDGVPSRFSGSGSGQDYSLTISSLEYEDMGIYYCLQYDEFPYTFGGGTKLEIK
notes: Three versions were made in CHO cells: mouse IgG1, mouse IgG2a and partially humanized IgG1; also called 37E1B5 antibody; anti-β8 (37E1B5)
- binding result (human integrin β8): binds
- binding result (human integrin αvβ8): binds
- binding result (mouse integrin β8): no binding
